T1: Interferon regulatory factor 3 (IRF3), as HAVI-Fluc-IRF3 and Rluc-IRF3-Flag, Q14653
T1 chain: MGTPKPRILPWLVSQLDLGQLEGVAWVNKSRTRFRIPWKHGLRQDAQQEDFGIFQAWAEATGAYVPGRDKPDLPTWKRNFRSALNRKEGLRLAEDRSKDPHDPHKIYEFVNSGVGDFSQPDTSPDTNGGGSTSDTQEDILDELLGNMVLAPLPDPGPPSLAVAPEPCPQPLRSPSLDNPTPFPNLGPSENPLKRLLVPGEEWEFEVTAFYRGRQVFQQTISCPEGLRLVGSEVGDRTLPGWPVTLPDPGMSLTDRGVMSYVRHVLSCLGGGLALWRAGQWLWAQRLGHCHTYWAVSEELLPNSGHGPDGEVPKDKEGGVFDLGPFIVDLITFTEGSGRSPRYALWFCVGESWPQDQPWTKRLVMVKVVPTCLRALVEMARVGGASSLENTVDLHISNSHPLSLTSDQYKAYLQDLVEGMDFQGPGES


Experiments:
[1] = molecular target: T1, Interferon regulatory factor 3 (IRF3), …; assay: pull-down; DLR-PD (dual luciferase reporter pull-down): both proteins co-expressed in HEK293; lysate in passive lysis buffer on Streptavidin MagneSphere Paramagnetic Particles in PBS, 30 m to 1 h, room temperature; two washes PBS with 1% Nonidet P 40, one with PBS; the biotinylated HAVI-tagged protein is held, Fluc and Rluc activity read on the beads; in some samples eYFP-MAVS or other activators (IRF3) or HCV …; details: remark: other sources report otherwise
[2] = molecular target: Mitochondrial antiviral signaling protein (MAVS), as HAVI-Fluc-MAVS and Rluc-MAVS-Flag, Q7Z434; assay: as above; details: remark: other sources report otherwise
[3] = molecular target: MAVS cleaved by HCV NS3/4A (HAVI-Fluc-MAVS and Rluc-MAVS co-expressed with NS3/4A); assay: pull-down; DLR-PD (dual luciferase reporter pull-down): both proteins co-expressed in HEK293; lysate in passive lysis buffer on Streptavidin MagneSphere Paramagnetic Particles in PBS, 30 m to 1 h, room temperature; two washes PBS with 1% Nonidet P 40, one with PBS; the biotinylated HAVI-tagged protein is held, Fluc and Rluc activity read on the beads; in some samples eYFP-MAVS or other activators (IRF3) or HCV NS3/4A (MAVS) co-expressed

| Binder | activity ratio of Rluc/Fluc on the beads (Rluc/Fluc activity ratio) [2] | fold of the percentage of Rluc on the beads over the three negative controls [2] [fold] | percentage of Rluc on the beads compared with the cell lysate [2] [%] | also measured |
| --- | --- | --- | --- | --- |
| Interferon regulatory factor 3 (IRF3), as HAVI-Fluc-IRF3 and Rluc-IRF3-Flag, Q14653 1-427 (natural protein, here or on the partner: biotin on a specific lysine residue of the Avi tag (by co-expressed BirA), on the HAVI-Fluc copy; biotin on a specific lysine residue of the Avi tag (by co-expressed BirA), on the HAVI-Fluc copy) MGTPKPRILPWLVSQLDLGQLEGVAWVNKSRTRFRIPWKHGLRQDAQQEDFGIFQAWAEATGAYVPGRDKPDLPTWKRNFRSALNRKEGLRLAEDRSKDPHDPHKIYEFVNSGVGDFSQPDTSPDTNGGGSTSDTQEDILDELLGNMVLAPLPDPGPPSLAVAPEPCPQPLRSPSLDNPTPFPNLGPSENPLKRLLVPGEEWEFEVTAFYRGRQVFQQTISCPEGLRLVGSEVGDRTLPGWPVTLPDPGMSLTDRGVMSYVRHVLSCLGGGLALWRAGQWLWAQRLGHCHTYWAVSEELLPNSGHGPDGEVPKDKEGGVFDLGPFIVDLITFTEGSGRSPRYALWFCVGESWPQDQPWTKRLVMVKVVPTCLRALVEMARVGGASSLENTVDLHISNSHPLSLTSDQYKAYLQDLVEGMDFQGPGES |  |  |  | activity ratio of Rluc/Fluc on the beads (10 ng MAVS vector, as the sentence says) (Rluc/Fluc activity ratio) [1]: 0.01; activity ratio of Rluc/Fluc on the beads (100 ng MAVS vector) (Rluc/Fluc activity ratio) [1]: 0.75; fold increase of the IRF3 dimerization ratio (overexpressed IKKε) [1]: < 1000 fold; fold of the percentage of Rluc on the beads over the negative control (10 ng of the MAVS vector) [1]: 27 fold |
| Rluc-TRAF3-Flag, Q13114 1-568 (natural protein, here or on the partner: biotin on a specific lysine residue of the Avi tag (by co-expressed BirA), on the HAVI-Fluc copy) MESSKKMDSPGALQTNPPLKLHTDRSAGTPVFVPEQGGYKEKFVKTVEDKYKCEKCHLVLCSPKQTECGHRFCESCMAALLSSSSPKCTACQESIVKDKVFKDNCCKREILALQIYCRNESRGCAEQLMLGHLLVHLKNDCHFEELPCVRPDCKEKVLRKDLRDHVEKACKYREATCSHCKSQVPMIALQKHEDTDCPCVVVSCPHKCSVQTLLRSELSAHLSECVNAPSTCSFKRYGCVFQGTNQQIKAHEASSAVQHVNLLKEWSNSLEKKVSLLQNESVEKNKSIQSLHNQICSFEIEIERQKEMLRNNESKILHLQRVIDSQAEKLKELDKEIRPFRQNWEEADSMKSSVESLQNRVTELESVDKSAGQVARNTGLLESQLSRHDQMLSVHDIRLADMDLRFQVLETASYNGVLIWKIRDYKRRKQEAVMGKTLSLYSQPFYTGYFGYKMCARVYLNGDGMGKGTHLSLFFVIMRGEYDALLPWPFKQKVTLMLMDQGSSRRHLGDAFKPDPNSSSFKKPTGEMNIASGCPVFVAQTVLENGTYIKDDTIFIKVIVDTSDLPDP | 2.29 | > 26 | 1.85 |  |
| Rluc-TRAF3-Flag (natural protein) MESSKKMDSPGALQTNPPLKLHTDRSAGTPVFVPEQGGYKEKFVKTVEDKYKCEKCHLVLCSPKQTECGHRFCESCMAALLSSSSPKCTACQESIVKDKVFKDNCCKREILALQIYCRNESRGCAEQLMLGHLLVHLKNDCHFEELPCVRPDCKEKVLRKDLRDHVEKACKYREATCSHCKSQVPMIALQKHEDTDCPCVVVSCPHKCSVQTLLRSELSAHLSECVNAPSTCSFKRYGCVFQGTNQQIKAHEASSAVQHVNLLKEWSNSLEKKVSLLQNESVEKNKSIQSLHNQICSFEIEIERQKEMLRNNESKILHLQRVIDSQAEKLKELDKEIRPFRQNWEEADSMKSSVESLQNRVTELESVDKSAGQVARNTGLLESQLSRHDQMLSVHDIRLADMDLRFQVLETASYNGVLIWKIRDYKRRKQEAVMGKTLSLYSQPFYTGYFGYKMCARVYLNGDGMGKGTHLSLFFVIMRGEYDALLPWPFKQKVTLMLMDQGSSRRHLGDAFKPDPNSSSFKKPTGEMNIASGCPVFVAQTVLENGTYIKDDTIFIKVIVDTSDLPDP |  |  |  | activity ratio of Rluc/Fluc on the beads (100 ng NS3/4A vector) (Rluc/Fluc activity ratio) [3]: 0.956 |
| Mitochondrial antiviral signaling protein (MAVS), as HAVI-Fluc-MAVS and Rluc-MAVS-Flag, Q7Z434 1-540 (natural protein, here or on the partner: biotin on a specific lysine residue of the Avi tag (by co-expressed BirA), on the HAVI-Fluc copy; biotin on a specific lysine residue of the Avi tag (by co-expressed BirA), on the HAVI-Fluc copy) MPFAEDKTYKYICRNFSNFCNVDVVEILPYLPCLTARDQDRLRATCTLSGNRDTLWHLFNTLQRRPGWVEYFIAALRGCELVDLADEVASVYQSYQPRTSDRPPDPLEPPSLPAERPGPPTPAAAHSIPYNSCREKEPSYPMPVQETQAPESPGENSEQALQTLSPRAIPRNPDGGPLESSSDLAALSPLTSSGHQEQDTELGSTHTAGATSSLTPSRGPVSPSVSFQPLARSTPRASRLPGPTGSVVSTGTSFSSSSPGLASAGAAEGKQGAESDQAEPIICSSGAEAPANSLPSKVPTTLMPVNTVALKVPANPASVSTVPSKLPTSSKPPGAVPSNALTNPAPSKLPINSTRAGMVPSKVPTSMVLTKVSASTVPTDGSSRNEETPAAPTPAGATGGSSAWLDSSSENRGLGSELSKPGVLASQVDSPFSGCFEDLAISASTSLGMGPCHGPEENEYKSEGTFGIHVAENPSIQLLEGNPGPPADPDGGPRPQADRKFQEREVPCHRPSPGALWLQVAVTGVLVVTLLVVLYRRRLH | 0.28 | > 6 | 0.13 |  |
